This experiment addresses Kv1.3 (Homo sapiens, UniProt P22001). In words: whole-cell patch clamp. In general terms: Patch clamp records ionic current or voltage across a cell membrane.

No end group written: not given here. enterokinase site = enterokinase site: N-terminal 6xHis-tag carrying an enterokinase cleavage site; factor Xa site = factor Xa site: N-terminal 6xHis-tag carrying a factor Xa cleavage site

Chain of Kv1.3 (P22001 whole entry): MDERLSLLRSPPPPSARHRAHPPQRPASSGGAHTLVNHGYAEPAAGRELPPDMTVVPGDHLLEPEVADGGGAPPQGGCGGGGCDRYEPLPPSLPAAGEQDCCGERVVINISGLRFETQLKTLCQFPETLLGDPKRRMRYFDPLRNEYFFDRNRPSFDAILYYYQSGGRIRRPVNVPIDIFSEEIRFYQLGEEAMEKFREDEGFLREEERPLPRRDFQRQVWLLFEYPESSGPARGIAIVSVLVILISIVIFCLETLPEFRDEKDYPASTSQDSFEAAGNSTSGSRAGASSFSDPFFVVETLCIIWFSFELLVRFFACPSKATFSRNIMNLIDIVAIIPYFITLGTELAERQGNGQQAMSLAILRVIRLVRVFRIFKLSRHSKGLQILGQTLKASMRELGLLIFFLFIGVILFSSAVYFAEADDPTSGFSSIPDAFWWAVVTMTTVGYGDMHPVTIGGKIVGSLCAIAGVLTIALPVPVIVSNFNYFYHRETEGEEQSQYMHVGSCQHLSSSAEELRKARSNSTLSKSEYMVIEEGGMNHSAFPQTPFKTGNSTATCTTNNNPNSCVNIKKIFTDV

B1: Ts6 (Tag-Ts6) (peptide)
chain: {6xHis tag-enterokinase site}-WCSTCLDLACGASRECYDPCFKAFGRAHGKCMNNKCRCYT
modifications: disulfide (positions not given here); ends not checked
For orientation: Kd means the concentration at which binding is half-saturated. High values mean weaker binding, low ones tighter binding. The molecule B1 registered a Kd of 887 nM.

B2: Ts6 (Untag-Ts6) (peptide)
chain: WCSTCLDLACGASRECYDPCFKAFGRAHGKCMNNKCRCYT
In turn, B2 showed a Kd of 29.1 nM.

B3: Anuroctoxin (Untag-AnTx) (peptide)
chain: QKECTGPQHCTNFCRKNKCTHGKCMNRKCKCFNCK
Regarding B3, the Kd worked out at 0.72 nM. Against the preceding molecule, the Kd is about 40-fold lower.

B4: Anuroctoxin (Tag-AnTx) (peptide)
chain: B3 chain
modifications: N-terminal 6xHis-tag with enterokinase site
In the case of B4, the affinity, expressed as Kd, was 1.29 nM.

B5: Vm24 (Tag-Vm24) (peptide)
chain: {6xHis tag-factor Xa site}-AAAISCVGSPECPPKCRAQGCKNGKCMNRKCECYYC
modifications: disulfide (positions not given here); ends not checked
For B5, the Kd turned out to be 0.0044 nM. This Kd lies about 290-fold lower than the previous one.

The values above are taken from article PMC9697831 (2022).
